Results taken from US20260042834A1 (HBM ALPHA THERAPEUTICS, published 2026).

How the values were obtained:
human UCN3 peptide = biological target: T1, human UCN3 peptide (human, UniProt Q969E3 120-157, not fully specified; biotin at N- or C-terminus in the ELISA); assay: ELISA, biotinylated hUCN3 on streptavidin plates
T1 construct: also called hUCN3; hUCN3 (NT Biotin)
T1 peptide (looked up): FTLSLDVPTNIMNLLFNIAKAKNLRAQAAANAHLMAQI
Procedure, shortened: (§1)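 Streptavidin-coated plates (2 μg/mL, overnight 4° C.), blocked with 2% BSA/0.05% Tween-20 PBS pH 7.4, then loaded with 1 μg/mL N- or C-terminally biotinylated hUCN peptide, 1 hour at 37° C. Detection by TMB substrate, 15 minutes at room temperature, stopped, OD450 nm read.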

human UCN1 peptide = biological target: T2, human UCN1 peptide (human, UniProt P55089 83-122, not fully specified; biotin at N- or C-terminus in the ELISA); assay: ELISA, biotinylated hUCN1 on streptavidin plates
T2 construct: also called hUCN1; hUCN1 (NT Biotin)
T2 peptide (looked up): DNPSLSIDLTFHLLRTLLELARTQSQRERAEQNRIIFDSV

human UCN2 peptide = biological target: T3, human UCN2 peptide (human, UniProt Q96RP3 72-109, limits assumed, not fully specified; biotin at N- or C-terminus in the ELISA); assay: ELISA, biotinylated hUCN2 on streptavidin plates
T3 construct: also called hUCN2; hUCN2 (NT Biotin)
T3 peptide (looked up): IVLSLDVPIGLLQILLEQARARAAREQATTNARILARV
Procedure, shortened: as §1

biotinylated CRH [1] = biological target: T4, biotinylated CRH (human and mouse, not fully specified; biotinylated, position not stated); assay: Octet in-tandem, row = 1st mAb; competitor (2nd mAb) PR303394
T4 construct: also called Biotin-CRH; biotin-labeled CRH
T4 peptide: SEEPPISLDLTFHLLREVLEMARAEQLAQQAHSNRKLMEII
Experimental: (§2) SA sensors (Fortebio, Cat #18-5019) were hydrated in running buffer for 10 mins.

biotinylated CRH [2] = biological target: T4, biotinylated CRH; assay: Octet in-tandem, row = 1st mAb; competitor (2nd mAb) PR005660
Experimental: as §2

biotinylated CRH [3] = biological target: T4, biotinylated CRH; assay: Octet in-tandem, row = 1st mAb; competitor (2nd mAb) PR302334
Experimental: as §2

biotinylated CRH [4] = biological target: T4, biotinylated CRH; assay: Octet in-tandem, row = 1st mAb; competitor (2nd mAb) PR302309-8
Experimental: as §2

biotinylated CRH [5] = biological target: T4, biotinylated CRH; assay: Octet in-tandem, row = 1st mAb; competitor (2nd mAb) PR301777
Experimental: as §2

biotinylated CRH [6] = biological target: T4, biotinylated CRH; assay: Octet in-tandem, row = 1st mAb; competitor (2nd mAb) PR302341-34
Experimental: as §2

biotinylated CRH [7] = biological target: T4, biotinylated CRH; assay: Octet in-tandem, row = 1st mAb; competitor (2nd mAb) PR006669
Experimental: as §2

biotinylated CRH [8] = biological target: T4, biotinylated CRH; assay: Octet BLI, biotinylated CRH on SA sensor

B1: PR302334-26 (antibody, human IgG1, kappa, V domains shown)
VH: EVQLVESGGGLVQPGGSLRLSCAASGFTFSTYAMSWVRQAPGKGLEWVASIRSGGTTYYPDSVKGRFTISRDNSKNSLYLQMNSLRAEDTAVYYCTRGIDWGQGTTVTVSS
VL: DIVMTQSPDSLAVSLGERATINCKASQSVNNDVAWYQQKPGQPPRLLIYYASNRYTGVPDRFSGSGSGTDFTLTISSLQAEDLAVYFCQQDYSSWTFGGGTKVEIKR
notes: Humanized variant of PR302334
B1: no binding (tested: 100 nM) (human UCN3 peptide); no binding (tested: 100 nM) (human UCN1 peptide); no binding (tested: 100 nM) (human UCN2 peptide).

B2: PR302334 (antibody, human IgG1, kappa, V domains shown)
VH: EVKLVESGGGLVKPGGSLKLSCAASGFTFSTYAMSWVRQTPEKRLEWVASIRSGGTTYYPDSVKGRFTISRDNARNILYLQMSSLRSEDTAIYYCTRGIDWGQGTLVTVSA
VL: NIVMTQTPKFLLVSAGDRITITCKASQSVNNDVAWYQQKPGQSPKLLIYYASNRYTGVPDRFTGSGYGTDFTFTISTVQAEDLAVYFCQQDYSSWTFGGGTNLEIKR
notes: Series 9; mouse variable domains with human IgG1 wildtype Fc
With B2 the “% Inhibition” value (biotinylated CRH [1]) was 89%, the “% Inhibition” value (biotinylated CRH [2]) was 92% and the “% Inhibition” value (biotinylated CRH [3]) was 95%. For the same binder, the “% Inhibition” value (biotinylated CRH [4]) was 91%, the “% Inhibition” value (biotinylated CRH [5]) was 90% and the “% Inhibition” value (biotinylated CRH [6]) was 88%. For the same binder, the “% Inhibition” value (biotinylated CRH [7]) was 93%, the Kd (biotinylated CRH [8]) was under 1 pM and the koff (biotinylated CRH [8]) was under 1e-07 s⁻¹. The kon (biotinylated CRH [8]) was 669000 M⁻¹ s⁻¹.
